This note sets out measurements from patent US20150166668A1 (PROMIS NEUROSCIENCES, published 2015).

The EC50 is the concentration at which the effect is half-maximal.

The target of test [1] is PrP on the surface of normal cells (human) (UniProt P04156).
For test [2] the target is unchanged. In words: flow cytometry on HOEpiC Donor 1 normal ovarian epithelium.
Test [3] has the same target. Kind of test: flow cytometry on HOEpiC Donor 2 normal ovarian epithelium. (In general: In flow cytometry, cells or beads pass a laser one at a time.)
The target is the same in test [4]. Kind of test: flow cytometry on HOEpiC Donor 3 normal ovarian epithelium.
For another test, the target named is T1, BSA-DSE3 peptide (human).
T1 construct: also called immunogen peptides; specific peptide
Kind of test: ELISA, plate coated with BSA-peptide.

Regarding Anti-PrP 6H4 antibody, in test [1], the concentration for a half-maximal effect (EC50) amounted to 17 nM. Moreover, the figures for the Ave S/N in test [2], in test [3] and in test [4] were 8.31, 14.2 and 15.1, respectively.

B1: DSE3 ab120 (antibody, V domains shown)
VH: QSVEESGGHLVTPGTPLTLTCTVSGIDLSTYAMGWVRQAPGKGLEWIGVITKSGNTYYASWAKGRFAISKTSTTVDLKITSPTTEDTATYFCGRYGIGVSYYDIWGPGTLVTVSS
VL: AQVLTQTPSPVSAAVGGTVTINCQSSQSLYNKNWLSWYQKKPGQPPKLLIYKASTLESGVSSRFKGSGSGTQFTLTISGVQCDDAATYYCQGEFSCSSADCTAFGGGTEVVVKG
Turning to B1, the EC50 in the test with BSA-DSE3 peptide is 0.0655 nM.
